Assay results as given in the DeepSol protein solubility set.

assay: soluble on expression in E. coli; label from the status in PepcDB or PDB records

Sequence | soluble on expression in E. coli
MKPLTYTLVVNGPQYGTQSARNAYLFAKALIEKGHILKSVFFYQDGVLNGSSTHVPANDEFNLLQGWQSLAQSHQVQLETCVAAALRRGVVSEQEASQHGLASHNLAAHFTQAGLGSLAQALLEQDRVVQF | soluble
MVWSATSRTKYSIKKSFFGCSMIELSNVNLHYPVPGHFSHSLQTTISSKIGGVLGSSSAKDKEMKYVHALRDINLKLEDSSRLGIIGHNGAGKTTLLRLLSQVYPPTSGKVTIEGKISALTDFTLGMDPNATGLKNIEFRLVFMGCTFKEAQQAVEEIVAFSELGEFINLPVRTYSTGMFLRLAFAISTHFTPDILILDEVIGAGDETFREKALSRLESLIKKSRMVVLSSHDLNAIKQYCDQAIVMEKGEIVFNGTPQSCIDYYLNSVKK | not soluble
MSWQLALYNGLWRALTPLVRRYLKKRARKAPAYLEHWDERFGQALSPSATGAIWIHAVSVGETRAAQPLVAAIRREWPDAPLLLTQMTPTGRATAEQLYPDAEVRYLPYDYPQAAADFLRAYRPRCGVLMETEIWPNLIHAAAAQRIPLLLANARLSEKSLNGYRKIAGLISPAIAKLTAVAAQTAEDADRLRQLGARSVSVCGSSKYDIEVPEAQRHLAADFRAMAGGRRALLCASTRDGEEALILDAWLAAGAAVGDTLLVLVPRHPERWDEVEKLAAERGLKSQRRSGGAAIAADTRVWLGDSMGEMFGYLGACDVAFIGGSLLPYGCHNLIEPAQVGVPALFGPSVFNFQQAAADSLAAGAGRQVGDAAALVSTALSLMDDPAAGEAMRQGAVRFRDAHRGASERMLALIREAMSAGSEKLEHHHHHH | not soluble
MTQPAAAVAAAAPAQTAPILGECVLKLSRSTTYEPPLYLFPELLPPVPQGTPPLPVWDAVADAVDIAASSWRVADATQLIAAGVAAAGTSGIKPSTGVERRPQAMVTLTSMIAENRLLAAGLDATVLERDAFSSAAIITHLAALQARMGLSDEEGAAIMSNHFINLLAWQKLRELNGPSLHAAVSRAEQKVSDEEAAGSAAFSPSHAAPPPSRKRSRADQDNDERDVWLPSPHPWATEAELAASDGSGRFVAVSEANVEQQVELLRTLAELYHRPWRTLASRGQQTDFVVPPGTVNVTSPFADNSKVPGALLDPATALGWGATLSSSLSTDYFGGVRVAHTACFYAVVLSAGTPTSAGKSVAPAPTRLPLDELTTYFGRESGVRGAAAVAAAAATPIAGALAPYTTHPEVLSRFQFALVLRPVYEHAADANEVRRPDSHLHVGKREPSTDDEASESDADAHQGHAAVLHTKRPHHYTLWLVNYGRNGVRVAGRGWVLSEPRQLQAGDVLIVGSEVQLRVEEHFSAAAARAPVVSDATLNTASVSSSQVKQERIEG | not soluble
MSKTLKIAIDAGHGPQTPGKRCPDDSMREFHFNSVVARYVRDGLAQYEGVQTMFTHADDGSRDVPLQERTDRANAWGADVFVSIHANASGNGWSDARGIETYVYTTRPAQAVKLAEAVQRNLIKETGLKDRGVKAENFHVLRETKMTAILCECGFMTNREEAELLKSDAYRRKCAKAIVAGIAEVYDLTLKQQAHASEPTYSGKFKDVPDGHYAKGATERLAEKGIMNGIGNGLFGFGKPITREDAAVIVDRAITYLEQKISQK | not soluble
GMDNSEEKKLEALGAFEISRKMLALAQKNEKSNIFLNAGRGNPNWIQTLARLAFVRLVQFGVTESKLTINNGIMAGYINTDGIRERLFAFLDPDKNDEDKFLIDAVNYCHTELGLNRDKVVAEWVNGAVANNYPVPDRCLVNTEKIINYFLQELSYKDANLAEQTDLFPTEGGTAAIVYAFHSLAENHLLKKGDKIAINEPIFTPYLRIPELKDYELVEVDLHSYEKNDWEIEPNEIEKLKDPSIKALIVVNPTNPTSKEFDTNALNAIKQAVEKNPKLMIISDEVYGAFVPNFKSIYSVVPYNTMLVYSYSKLFGCTGWRLGVIALNEKNVFDDNIAHLDKVELRQLHKRYSSVVLDPDKMKFIDRLCADSRSIGLYHTAGLSTPQQIMEALFSMTHLLTSTNGGSDDPYIDIARKLVSERYDQLHDAMQAPKDETDTNTHYYSLIDIYRLAEKIYGKEFRDYLTNNFEQVDFLLKLAEKNGVVLVDGVGFGAKPGELRVSQANLPTEDYALIGKQVLELLKEYYEEFKQNN | soluble
MDLWKLYQPGTPAAIVAWGQLGTAHAKTTYGLLRHSRLFKPVCVVAEHEGKMASDFVKPVRYDVPVVSSVEKAKEMGAEVLIIGVSNPGGYLEEQIATLVKKALSLGMDVISGLHFKISQQTEFLKIAHENGTRIIDIRIPPLELDVLRGGIYRKKIKVVGVFGTDCVVGKRTTAVQLWERALEKGIKAGFLATGQTGILIGADAGYVIDAVPADFVSGVVEKAVLKLEKTGKEIVFVEGQGALRHPAYGQVTLGLLYGSNPDVVFLVHDPSRDHFESFPEIPKKPDFEEERRLIETLSNAKVIGGVSLNGGFETDLPVYDPFNTDDLDEMLERAMVW | not soluble
MSLAWLISEFASVGDVTVRALRYYDKINLLKPSDYTEGGHRLYTKDDLYVLQQIQSFKHLGFSLGEIQNIILQRDIETEVFLRQMHFQREVLLAEQERIAKVLSHMDEMTKKFQKEERVNVALFSSFLQTFIWEKENKEWLEEHFSTESIQAFYNNKELKEKFDRRFMDVIGKLKKYKEEEKDPSHHDVQVTLKEFFHLIEKITDYLDISQSEVVSVIKQSKISMAEFPTLFTNEEEQYIKEAMNKEGHHHHHH | soluble
MGSDKIHHHHHHMFKLVSEFEPTGDQPQAIEKLVEGLNRGMRFQTLLGVTGSGKTFTMANVIARVNRPALVISPNKTLAAQLYQEFKTFFPENRVEFFISYYDYYQPEAYIPTKDLYIEKNADINDVIVRMRMSTLKSVRTRRDVVVVASVSCIYATGDPNDFDRMNINLAVGDRIDVLELAERLARIGYQRTEDVSLSGCFRLKGDTVEIYPTYQDEGIRIEFFGDEVDSITLIDRFNRTTLEHLDKIIIYPAVEFITTEEKLKRAVESIREELNERLSELKKQGKILEYERLKQRTLNDIELLETMGYCPGIENYSRHFDGRKPGEPPYTLLDYFDKDFIVFIDESHITVPQLRAMYNGDRSRKKNLVEYGFRLPSAYDNRPLTFEEFLKKTGQIIFVSATPGDFELSISEQVVEQIIRPTGLVDPEVEVRPTAGQVDDLVNEIVKVKERGERALVTVLTKKTAELLSEHLTELGIRSLYLHSELDAIERVEVLKKLRRGDVDVVVGVNLLREGLDLPEVSLVAIMDADVEGFLRSETTLIQIIGRTARNVNGKVIMYADRITNAMKRAIEETNRRRRIQLEYNRKHGITPRSVIKPLEIEVFEQFMVKEEPERYGDTVKNIFEMKKTLSPEEYMAVLEEEMYRAASELRYEDAAALRDELFRIREEIKKKKGL | not soluble
MATAIAITSLLIISGCSSNVETTTVKKETMQSQQKNTETVNTTPQNFYKDITSGKIEHIHGIGYVGNVPWVSIATHSGIKVYQNGKWLETATQLHDYMGFQATKNGFFASGHPEPGANLKNPLGLMKSSDGGNTLEKLAFYGESDFHNLAVGYNTEAIYLYNERPNSKLQQGFYFSTNNGQDWKNSKLKGLSSTVHSFSVHPDQSSVVAVSTKDGVYLSTDYGNTFELFSKSLESTAVTLSNEDVIYAPINTQIVTKKSIATNEETNIQIPLLDSKDAIMYISQNPQNAAEIVFATMKANVFLSTDEGKTWKQLTKEGTLQFN | not soluble
MTLSFDDAAATVKTLKTSPSNDELLKLYALFKQGTVGDNTTDKPGMFDLKGKAKWSAWDEKKGLAKDDAQKAYVALVEELIAKYGA | soluble
MSLAAIDKTTVATVNGEKITLGEVDSHLKGVFAQMKSQYGDKYMDDPQVAQQILQQRQSVVQGLVTDKVLGIEADKLGIKPSEEEIKKKVDEQFENIKKGMGDNFDKALEAEGYTEDTFKDVIKNQVINQAVQDYIIKDVKVTDEDAQKYYDENKQQFVAKDSGVLTKHLLFENEEEAQKAYDEIQSGKTTFNDLFTKYENNKSENKKPIAENLGVVPAENSGLVQEFVDGLKPLKEGEISKPIKTQFGYHIIQAGATYEKGAQLPFDDVKSQIIQILKQQKDSEKFKADMDQWKKDLNVKVYDDKLQEGLKISEGHHHHHH | soluble
MSPVEESPEEFLARFAAHRVEVRLYPEPWGSPLLEVQTPAGFVYAMDRGAPPAPVGEARVLFHGLARKVARAQGKEGVFREGAAYRLVGTARPLEKGFYLLLARGLPVVVHWEGPMPEEAEVLLWPPLMLFRE | soluble
MENVTNFPLLQLPSKTIQVVLSIMSPFELINFSKSSAEAKKVVKQFANAKRRELYKFKVCIGLIPFVAFV | not soluble
